Drawing on US20230203156A1 (published 2023), this text covers EC50 for 16 molecules.

T1: cynomolgus CD47 (cynomolgus, UniProt A0A5F8AK49 19-323)
T1 chain: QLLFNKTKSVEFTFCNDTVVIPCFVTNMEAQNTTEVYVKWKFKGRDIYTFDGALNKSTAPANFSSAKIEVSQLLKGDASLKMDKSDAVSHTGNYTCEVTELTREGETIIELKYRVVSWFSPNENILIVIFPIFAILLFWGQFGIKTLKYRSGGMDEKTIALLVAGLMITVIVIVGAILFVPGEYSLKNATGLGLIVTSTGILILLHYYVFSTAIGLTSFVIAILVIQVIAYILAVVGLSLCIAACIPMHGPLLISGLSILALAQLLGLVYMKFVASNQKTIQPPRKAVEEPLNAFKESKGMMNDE

B1: 15D3DD/KT14KK/225v1 (antibody)
chain 1: EVKVVESGGVLVRPGGSLKLSCAASGFTFSRYTMSWVRQTPEKRLEWVATISSGGGNTYYPDSVKGRFTVSRDNAMSSLYLQMSSLRSEDTALYYCARYGAGDAWFAYWGQGTLVTVSS
chain 2: QVQLVQSGAEVKKPGASVKVSCKASGYTFTNYNMHWVRQAPGQRLEWMGTIYPGNDDTSYNQKFKDRVTITADTSASTAYMELSSLRSEDTAVYYCARGGYRAMDYWGQGTLVTVSS
chain 3: DVVMTQTPLSLPVSLGDQASISCRFSQSIVHSNGNTYLEWYLQKPGQSPKLLIYKVSNRFFGVPDRFSGSGSGTDFTLKISRVEAEDLGVYYCFQASHFPRTFGGGTKLEIK
B2: 15D3DD KT14KK B1.89v1 LC (bispecific antibody)
heavy 1: not shown
heavy 2: not shown
VL: DVLMTQTPLSLPVSLGDQASISCRSSQTIVHSNGNTYLEWYLQKPGQSPKLLIYKVSKRFSGVPDRFSGSGSGTDFTLKISRVEAEDLGVYYCFQASHFPRTFGGGTKLEIK
B3: 15D3DD/KT14KK/B1.27 (antibody)
chain 1: EVKVVESGGVLVRPGGSLKLSCAASGFTFSRYTMSWVRQTPEKRLEWVATISSGGGNTYYPDSVKGRFTVSRDNAMSSLYLQMSSLRSEDTALYYCARYGAGDAWFAYWGQGTLVTVSS
chain 2: QVQLVQSGAEVKKPGASVKVSCKASGYTFTNYNMHWVRQAPGQRLEWMGTIYPGNDDTSYNQKFKDRVTITADTSASTAYMELSSLRSEDTAVYYCARGGYRAMDYWGQGTLVTVSS
chain 3: DVLLTQTPLSLPVSLGDQASISCRSSQNIVHSTGNTYLDWYLQKPGQSPKLLIYKVSNRFSGVPDRFSGSGSGTDFTLKISRVEAEDLGVYFCFQGSHIPRTFGGGTKLEIK
B4: 15D3DD/KT14KK/VL6.CDR3mod (antibody)
chain 1: EVKVVESGGVLVRPGGSLKLSCAASGFTFSRYTMSWVRQTPEKRLEWVATISSGGGNTYYPDSVKGRFTVSRDNAMSSLYLQMSSLRSEDTALYYCARYGAGDAWFAYWGQGTLVTVSS
chain 2: QVQLVQSGAEVKKPGASVKVSCKASGYTFTNYNMHWVRQAPGQRLEWMGTIYPGNDDTSYNQKFKDRVTITADTSASTAYMELSSLRSEDTAVYYCARGGYRAMDYWGQGTLVTVSS
chain 3: DVLMTQTPLSLPVSLGDQASISCRSSQSLVHSNGNTYLEWYLQKPGQSPKLLIYKVSNRFSGVPDRFSGSGSGTDFTLKISRVEAEDLGVYYCFQGSHFPRTFGGGTKLEIKRTVAAPSVFIF
B5: KT14.5F9hu scFv-B1.261.hu1 (bispecific antibody)
scFv: not shown
heavy: EVQLQESGPGLVKPSETLSLTCTVSGFSLTSYGVHWVRQPPGKGLEWLVVIWSDGSTTYNSALKSRLTISKDNSKNQVSLKLSSVTAADTAVYYCARHGRWLLQRGGAMDYWGQGTMVTVSSASTKGPSVFPLAPSSKSTSGGTAALGCLVKDYFPEPVTVSWNSGALTSGVHTFPAVLQSSGLYSLSSVVTVPSSSLGTQTYICNVNHKPSNTKVDKRVEPKSCDKTHTCPPCPAPELLGGPSVFLFPPKPKDTLMISRTPEVTCVVVDVSHEDPEVKFNWYVDGVEVHNAKTKPREEQYNSTYRVVSVLTVLHQDWLNGKEYKCKVSNKALPAPIEKTISKAKGQPREPQVCTLPPSREEMTKNQVSLSCAVKGFYPSDIAVEWESNGQPENNYKTTPPVLDSDGSFFLVSKLTVDKSRWQQGNVFSCSVMHEALHNHYTQKSLSLSPGK
light: DVQMTQSPSSLSASVGDRVTITCRASQNVGSYIAWYQQKPGKSPKALIYSASYRSSGVPSRFSGSGAGTDFTLTISSLQPEDFATYFCQQYNSYPLTFGGGTKLEIKRTVAAPSVFIFPPSDEQLKSGTASVVCLLNNFYPREAKVQWKVDNALQSGNSQESVTEQDSKDSTYSLSSTLTLSKADYEKHKVYACEVTHQGLSSPVTKSFNRGEC
B6: B1.188 (antibody, V domains shown)
VH: EVMLVESGGALVKPGGSLKLSCAASGFTFSNYAMSWVRQTPEKRLEWVATISSGGSYTYYPDSVKGRFTISRDNARNTLYLQMSSLRSEDTAMYYCARGYGNFAWFAYWGQGTLVTVSA
VL: DIQMTQSPLSLPVSLGDQASISCRSSQSIVHSTGNTYLEWYLQKPGQSPKLLIYKVSNRFSGVPDRFSGSGSGTDFTLKISRVEAEDLGVYYCFQGSHVPFTFGSGTKLEIK
B7: B1.198 (antibody, V domains shown)
VH: EVQLVESGGALVKPGGSLKLSCAASGFTFSNYAMSWVRQTPEKRLEWVATISSGGSYTYYPDSVKGRFTISRDNAKNTLYLQMSSLRSEDTALYYCAKYSNYGRFAYWGQGTLVTVSA
VL: DVVMTQTPLSLPVSLGDQASISCRSSQSIVDSNGNTYLEWYLQKPGQSPKLLIYKVSNRFFGVPDRFSGSGSGTDFTLKISRVEAEDLGVYYCFQGSHVPYTFGGGTKLEIK
B8: B1.30 (antibody, V domains shown)
VH: EVMLVESGGGLVKPGGSLKLSCAASGFTFSSYTMSWVRQTPEKRLEWVATISSGGGNTYYPDSVKGRFTISRDNAKNNLYLQMSSLRSEDTALYYCARYYRYDAWFAYWGQGTLVTVSA
VL: DVLMTQTPLSLPVSLGDQASISCRSSQSIVHSTGNTYLEWYLQKPGQSPKLLIYKVSNRFSGVPDRFSGSGSGTDFTLKISRVETEDLGVYYCFQGSHVPRTFGGGTKLEIK
B9: B1.85 (antibody, V domains shown)
VH: EVQLVESGGALVKPGGSLKLSCAASGFTFSNYGVSWVRQTPEKRLEWVATISSSGSYTYYPDIVRGRFTISRDNAKNTLYLQMSSLRSEDTAFYYCARGYGNFAWFAYWGQGTLVTVSA
VL: DIQMTQSPLSLPVSLGDQASISCRSSQSIVHSTGNTYLEWYLQKPGQSPKLLIYKVSNRFSGVPDRFSGSGSGTDFTLKINRVEAEDLGVYYCFQGSHVPYTFGGGTKLEIK
B10: B1.27 (antibody, V domains shown)
VH: EVKLVESGGGLVKPGGSLKLSCAASGFTFSSYTMSWVRQTPEKRLEWVATVSSGGGNTYYPDSVKGRFTISRDNAKNNLYLQMSSPRSEDTALYYCARYGNYGWFTYWGQGTLVTVSS
VL: DVVMTQTPLSLPVSLGDQASISCRSSQNIVHSTGNTYLDWYLQKPGQSPKLLIYKVSNRFSGVPDRFSGSGSGTDFTLKISRVEAEDLGVYFCFQGSHIPRTFGGGTKLEIK
B11: B1.207 (antibody, V domains shown)
VH: GVQLVESGGALVKPGGSLKLSCAASGFTFSNYAMSWVRQTPEKRLEWVATISSGGSYTYYPDSVKGRFTISRDNAKTTLYLQMSGLRSEDTALYYCAKYSNYGRFASWGQGTLVTVST
VL: DVLMTQTPLSLPVSLGDQASISCRSSQSIVHSSGNTYLEWYLQKPGQSPRLLIYKVSNRFFGVPDRISGSGSGTDFTLRISRVEAEDLGVYYCFQGSHVPYTFGGGTKLEIK
B12: B1.99 (antibody, V domains shown)
VH: EVQLVESGGALVKPGGSLKLSCAASGFTFSNYAMSWVRQTPERRLEWVATISSGGSYTYYPDSVKGRFTISRDNAKNTLYLQMSSLISEDTALYYCTRGYGNFAWFAYWGHGTLVTVSA
VL: DVVMTQTPLSLPVSLGDQVSISCRSSQSIVHSYGSTYLEWYLQKPGQSPKLLIYKVSNRFSGVPDRFSGSGSGTDFTLKISRVEAEDLGVYFCFQGSHIPYTFGGGTKLELK
B13: B1.178 (antibody, V domains shown)
VH: EAQLVESGGALVKPGGSLKLSCSASGFTFSNYAMSWVRQTPEKRLEWVATISSGGTNTYYPGSVKGRFTIARDNAKNTLYLLMSSLRSEDTALYFCARYSNLAWFASWGQGTLVTVSA
VL: DVVMTQTPLSLPVSLGDQASISCRSSQSIVHSNGNTYLEWYLQKPGQSPKFLISKVSNRFSGVPDRFSGSGSGTDFTLKISRVEAEDLGIYYCFQGSHVPYTFGGGTKLEIK
B14: B1.39 (antibody, V domains shown)
VH: EVMLVESGGGLVKPGGSLKLSCAASGFTFSSYTMSWVRQTPEKRLEWVATVSSGGGNTYYPDSVKGRFTISRDNAKNNLYLQMSSLRSEDTALYYCARYGNYGWFTYWGQGTLVTVSA
VL: DVLMTQTPLSLPVSLGDQASISCRSSQSILHSNGNTYLEWYLQKPGQSPKLLIYKVSNRFSGVPDRFSASGSGTDFTLKISRVEAEDLGIYYCFQGSHVPRTFGGGTKLEIK
B15: B1.223 (antibody, V domains shown)
VH: EVKLVESGGALVKPGGSLKLSCAASGFTFSNYAMSWVRQTPEKRLEWVATISSGGSYTYYPDSVKGRFTISRDNAKTTLYLQMSGLRSEDTALYYCAKFSNYGRFASWGQGTLVTVSS
VL: DIQMIQSPLSLPVSLGDQASISCRSSQSIVHSSGNTYLEWYLQKPGQSPRLLIYKVSNRFFGVPDRISGSGSGTDFTLRISRVEAEDLGVYYCFQGSHVPYTFGGGTKLELK
B16: B1.201 (antibody, V domains shown)
VH: EVQLVESGGALMKPGGSLKFSCAASGFTFTNYAMSWVRQTPEKRLEWVATISSGGSNTYYSDSVKGRFTISRDNAKTTLYLQMSGLRSEDTALYYCAKFSNFGRFASWGQGTLVTVSA
VL: DVLMTQTPLSLPVSLGDQASISCRFSQSIVHSSGNTYLEWYLQKPGQSPRLLIYKVSNRFFGVPDRISGSGSGTDFTLRISRVEAEDLGVYYCFQGSHVPYTFGGGTKLEIK

The target of the first experiment is T1, cynomolgus CD47. Kind of experiment: FACS binding, C6-cKT14 cells.
Turning to B1, the EC50 was determined as 37 nM. This lies in the double-digit nanomolar range.

B2 returned an EC50 of 21 nM. Against the preceding molecule, the EC50 is about 1.8-fold lower.

Take B3: the EC50 was 36 nM. This EC50 lies about 1.7-fold higher than the previous one.

Turning to B4, the EC50 stood at 44 nM.

The target in another experiment is human CD47 (human, UniProt Q08722 19-323). In words: cell binding (flow cytometry, C6 cells).
In turn, B5 yielded an EC50 of 2.7 nM.

The next experiment deals with human MDR1 (multidrug resistance protein 1) (UniProt P08183 1-1280). Kind of experiment: FACS binding, 293T cells expressing human MDR1.
Take B6: the response was half-maximal at 14.1 nM (EC50).

Molecule B7 had an EC50 of 14.8 nM.

As for B8, the concentration giving a half-maximal response (EC50) came to 8.5 nM.

As to B9, the EC50 was found to be 9.2 nM.

The molecule B10 displayed an EC50 of 34 nM.

Consider B11, for which the EC50 came out at 4.3 nM.

Molecule B12 showed an EC50 of 88.2 nM. Against the preceding molecule, the EC50 is about 21-fold higher.

The molecule B13 showed an EC50 of 16.6 nM.

B14: a half-maximal effect (EC50) was put at 14.2 nM.

In the case of B15, the EC50 is 4.6 nM.

B16 yielded an EC50 of 8 nM.
